Earlier results on one substance are cited in US5763478A, “Triterpene derivatives with immunosuppressant activity” (Merck & Co., Inc., priority 1996, dated 1998).

The target of the data set is T1, KV 1.3 channels (CHO cells transfected with KV 1.3) (Homo sapiens, UniProt P22001).
T1 construct: expressed in transfected cells; host or cells: CHO cells
The settings on record: reference blocker used at saturating concentration to set the efflux window.

T1 sequence (P22001 53-575 limits assumed): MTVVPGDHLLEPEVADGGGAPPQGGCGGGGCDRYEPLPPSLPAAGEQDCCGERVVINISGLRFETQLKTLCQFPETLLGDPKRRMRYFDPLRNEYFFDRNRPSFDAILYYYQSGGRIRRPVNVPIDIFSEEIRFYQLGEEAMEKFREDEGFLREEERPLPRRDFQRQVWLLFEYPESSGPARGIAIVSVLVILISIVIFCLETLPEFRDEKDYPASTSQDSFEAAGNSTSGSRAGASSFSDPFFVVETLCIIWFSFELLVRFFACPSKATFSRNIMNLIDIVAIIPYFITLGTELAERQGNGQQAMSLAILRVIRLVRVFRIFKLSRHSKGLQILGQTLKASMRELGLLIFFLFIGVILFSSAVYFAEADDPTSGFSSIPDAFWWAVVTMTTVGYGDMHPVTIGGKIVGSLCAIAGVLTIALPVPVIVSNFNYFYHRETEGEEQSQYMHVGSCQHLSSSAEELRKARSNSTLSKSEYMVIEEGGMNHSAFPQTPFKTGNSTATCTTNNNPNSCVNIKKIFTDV

In the case of “margatoxin (TIINVKCTSPKQCLPPCKAQFGQSAGAKCMNGKCKCYPH; UniProt P40755 1-39, looked up)”, the IC50 (commonly the concentration needed to halve the response being measured) is 0.1 nM.
